Test results as given in PMC13083955.

Legend:
[1] = target: Dsk2 UBA (Saccharomyces cerevisiae) (UniProt P48510); settings: cited from earlier work
[2] = target: full-length Dsk2 (yeast (S. cerevisiae)) (UniProt P48510)

| phase separation of Dsk2 alone, saturation concentration (csat) against temperature (20 mM NaPhosphate pH 6.8, 150 mM NaCl, 7.5% PEG 8000, 0.5 mM EDTA) [2] | Substance | Kd [1] |
| --- | --- | --- |
|  | Dsk2 UBL (from UniProt P48510) | 80 µM |
| 10 µM | full-length Dsk2 (from UniProt P48510 1-373) (natural protein) |  |
